Paper PMC5605669

Target: APOBEC3G, wild type (human), Q9HC16
Assay: optical tweezers (single-molecule ssDNA extension); self-association of A3G bound to force-melted lambda-DNA (ssDNA) held at 80 pN; 10 to 200 nM A3G flowed in; 10 mM HEPES, 50 mM Na+, pH 7.5, 21 °C; two-exponential fit of incubation curves, k2 = rate of oligomer formation at saturating binding
Conditions: remark: other sources report otherwise

B1: APOBEC3G, wild type, Q9HC16 1-384 (enzyme)
chain: MKPHFRNTVERMYRDTFSYNFYNRPILSRRNTVWLCYEVKTKGPSRPPLDAKIFRGQVYSELKYHPEMRFFHWFSKWRKLHRDQEYEVTWYISWSPCTKCTRDMATFLAEDPKVTLTIFVARLYYFWDPDYQEALRSLCQKRDGPRATMKIMNYDEFQHCWSKFVYSQRELFEPWNNLPKYYILLHIMLGEILRHSMDPPTFTFNFNNEPWVRGRHETYLCYEVERMHNDTWVLLNQRRGFLCNQAPHKHGFLEGRHAELCFLDVIPFWKLDLDQDYRVTCFTSWSPCFSCAQEMAKFISKNKHVSLCIFTARIYDDQGRCQEGLRTLAEAGAKISIMTYSEFKHCWDTFVDHQGCPFQPWDGLDEHSQDLSGRLRAILQNQEN
- k2 (rate of oligomer formation on ssDNA): 0.007 s⁻¹
